Positions of bridges follow the written chain, without caps; N, C: chain ends. Groups on a side chain read outwards from the residue. Chains are numbered I, II in the order given. No end group written: not given here. *: point of attachment. Biotin = O=C1N[C@H]2[C@H](CS[C@H]2CCCCC(=O)*)N1; fluorescein = fluorescein label on a side chain; AEEA = NCCOCCOCC(=O)O
Tests used:
[1] = molecular target: T1, KDR-Fc (chimeric fusion of Ig Fc region with human KDR, R&D Systems #357-KD-050) (human, UniProt P35968 20-764); experiment: fluorescence polarisation, monodentate peptide against KDRFc
T1 construct: Bought; also called KDR Fc fusion; not shown: Ig Fc region of the bought chimera
T1 sequence (P35968 20-764, stated change not applied): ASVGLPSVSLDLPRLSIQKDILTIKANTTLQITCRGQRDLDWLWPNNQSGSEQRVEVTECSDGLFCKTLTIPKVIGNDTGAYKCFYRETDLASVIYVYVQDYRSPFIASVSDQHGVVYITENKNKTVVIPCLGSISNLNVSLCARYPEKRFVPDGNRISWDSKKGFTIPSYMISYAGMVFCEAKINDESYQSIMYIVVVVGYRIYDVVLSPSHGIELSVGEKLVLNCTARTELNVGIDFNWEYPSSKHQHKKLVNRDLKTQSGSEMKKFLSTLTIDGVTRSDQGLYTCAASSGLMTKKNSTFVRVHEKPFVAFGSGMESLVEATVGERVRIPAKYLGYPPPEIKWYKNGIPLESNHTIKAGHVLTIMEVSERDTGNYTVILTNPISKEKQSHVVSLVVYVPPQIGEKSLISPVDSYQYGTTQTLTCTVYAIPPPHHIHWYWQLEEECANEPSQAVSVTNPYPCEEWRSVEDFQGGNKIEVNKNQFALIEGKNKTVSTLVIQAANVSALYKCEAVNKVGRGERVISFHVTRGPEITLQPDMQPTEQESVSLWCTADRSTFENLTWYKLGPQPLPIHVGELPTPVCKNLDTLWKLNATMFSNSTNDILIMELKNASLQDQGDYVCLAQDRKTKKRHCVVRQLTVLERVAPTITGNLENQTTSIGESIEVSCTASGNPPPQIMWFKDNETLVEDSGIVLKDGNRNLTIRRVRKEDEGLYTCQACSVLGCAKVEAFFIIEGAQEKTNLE

[2] = molecular target: T2, KDR (VEGFR-2, Flk-1), full-length receptor on cells (human, UniProt P35968 20-1356); experiment: displacement of P12-XB/streptavidin-HRP complex (5.5 nM) from KDR-expressing cells
T2 construct: whole, on cells; endogenous on HUVECs in the functional assays; also called VEGF receptor 2
T2 sequence (P35968 20-1356): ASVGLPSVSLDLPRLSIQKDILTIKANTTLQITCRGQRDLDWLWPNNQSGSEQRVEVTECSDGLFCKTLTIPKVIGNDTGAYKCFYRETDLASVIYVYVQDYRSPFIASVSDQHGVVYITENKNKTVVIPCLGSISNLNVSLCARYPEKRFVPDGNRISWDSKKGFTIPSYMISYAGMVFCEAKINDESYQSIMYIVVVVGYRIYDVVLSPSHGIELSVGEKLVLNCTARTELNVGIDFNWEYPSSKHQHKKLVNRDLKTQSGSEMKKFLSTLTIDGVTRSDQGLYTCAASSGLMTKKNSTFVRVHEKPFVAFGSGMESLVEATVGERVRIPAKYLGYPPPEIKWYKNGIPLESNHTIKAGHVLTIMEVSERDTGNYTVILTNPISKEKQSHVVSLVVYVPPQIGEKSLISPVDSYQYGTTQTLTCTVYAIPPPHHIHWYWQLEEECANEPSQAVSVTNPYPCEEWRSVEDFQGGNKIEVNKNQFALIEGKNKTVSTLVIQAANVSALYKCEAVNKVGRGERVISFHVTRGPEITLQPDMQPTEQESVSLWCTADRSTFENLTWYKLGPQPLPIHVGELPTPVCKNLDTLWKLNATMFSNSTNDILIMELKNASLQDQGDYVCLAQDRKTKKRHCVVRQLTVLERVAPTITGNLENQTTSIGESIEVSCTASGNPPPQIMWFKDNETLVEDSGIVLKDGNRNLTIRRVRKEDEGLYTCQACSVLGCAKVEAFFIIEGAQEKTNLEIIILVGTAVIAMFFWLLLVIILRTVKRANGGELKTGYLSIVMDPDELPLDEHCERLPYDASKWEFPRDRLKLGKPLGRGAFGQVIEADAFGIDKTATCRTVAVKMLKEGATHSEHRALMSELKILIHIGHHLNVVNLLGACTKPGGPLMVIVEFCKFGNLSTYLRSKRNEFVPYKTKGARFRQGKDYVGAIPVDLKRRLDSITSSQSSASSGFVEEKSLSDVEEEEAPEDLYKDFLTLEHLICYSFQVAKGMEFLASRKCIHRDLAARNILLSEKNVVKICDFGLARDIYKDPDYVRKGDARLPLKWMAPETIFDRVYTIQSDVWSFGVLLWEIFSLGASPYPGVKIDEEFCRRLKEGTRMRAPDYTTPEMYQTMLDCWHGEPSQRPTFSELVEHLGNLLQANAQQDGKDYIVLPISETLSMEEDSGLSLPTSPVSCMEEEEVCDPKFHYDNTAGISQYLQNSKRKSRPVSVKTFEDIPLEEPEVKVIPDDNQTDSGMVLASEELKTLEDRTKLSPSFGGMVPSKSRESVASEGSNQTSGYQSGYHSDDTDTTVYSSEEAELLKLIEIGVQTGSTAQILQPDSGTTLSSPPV

[3] = molecular target: T3, Soluble KDR receptor (UniProt P35968 20-764, limits assumed); experiment: SPR (Biacore 3000), soluble KDR on CM5 chip; ratio of the KD of monomer P10 to the apparent KD of the head-to-head dimer
T3 construct: Immobilised by amine coupling, RL 12721
T3 sequence (P35968 20-764 limits assumed): as the sequence (P35968 20-764, stated change not applied) above
Experimental: (§1) Soluble KDR receptor was cross-linked to the dextran surface of a CM5 sensor chip by the standard amine coupling procedure. […] For association, peptides were injected at 20 μL/min for 2 minutes using the kinject program. Following a 3 minute dissociation period, any remaining peptide was stripped from the KDR surface with a quickinject of 50 mM NaOH, 1M NaCl for 15 s at 75 μL/min. […] Sensorgrams were analyzed by global analysis using BIAevaluation software 3.1.

[4] = molecular target: T3, Soluble KDR receptor; experiment: SPR (Biacore 3000), soluble KDR on CM5 chip; ka,1 (initial encounter)
Experimental: as §1

[5] = molecular target: T3, Soluble KDR receptor; experiment: SPR (Biacore 3000), soluble KDR on CM5 chip; apparent KD
Experimental: as §1

[6] = molecular target: T3, Soluble KDR receptor; experiment: SPR (Biacore 3000), soluble KDR on CM5 chip; column kd,1, by the text the predominant off-rate kd,2; predominant off-rate (kd,2 by the text) printed under the head kd,1
Experimental: as §1

[7] = molecular target: T3, Soluble KDR receptor; experiment: SPR (Biacore 3000), soluble KDR on CM5 chip; ratio of the KD of monomer P9 to the apparent KD of the tail-to-tail dimer
Experimental: as §1
By design, the interaction of a dimeric peptide with KDR is expected to proceed through two kinetic steps.

[8] = molecular target: T3, Soluble KDR receptor; experiment: SPR (Biacore 3000), soluble KDR on CM5 chip; column kd,1, by the text the predominant off-rate kd,2
Experimental: as §1

[9] = molecular target: T3, Soluble KDR receptor; experiment: Biacore
Experimental: as §1

[10] = molecular target: T2, KDR (VEGFR-2, Flk-1), full-length …; experiment: saturation binding of peptide/neutravidin-HRP complex, KDR- minus mock-transfected 293H cells
Experimental: After incubation at room temperature, plates were transferred to 4° C. for another half-hour incubation. Subsequently, cells were washed five times with ice-cold M199 media and 1× with ice-cold PBS (in that order). After the final wash, 100 μL of ice cold TMB solution (KPL, cat. # 50-76-00) was added to each well, and each plate was incubated for 30 minutes at 37° C. in an air incubator.
Therefore, absorbance on the Y-axis of FIG. 8 is differential absorbance (KDR minus mock) and not the absolute absorbance.

AGPTWCEDDWYYCWLFGTGGGK(fluorescein)-NH2 (disulfide 6-13 (inferred)) [P12, monodentate peptide measured by FP]
Kd [1]: 3 nM

B1: P34-L (peptide)
peptide: Ac-AGPTWKEDDWYYEWLFGTGGGK-NH2
modifications: lactam 6-13
SMILES: CC(=O)N[C@@H](C)C(=O)NCC(=O)N1CCC[C@H]1C(=O)N[C@H](C(=O)N[C@@H](Cc1c[nH]c2ccccc12)C(=O)N[C@H]1CCCCNC(=O)CC[C@@H](C(=O)N[C@@H](Cc2c[nH]c3ccccc23)C(=O)N[C@@H](CC(C)C)C(=O)N[C@@H](Cc2ccccc2)C(=O)NCC(=O)N[C@H](C(=O)NCC(=O)NCC(=O)NCC(=O)N[C@@H](CCCCN)C(N)=O)[C@@H](C)O)NC(=O)[C@H](Cc2ccc(O)cc2)NC(=O)[C@H](Cc2ccc(O)cc2)NC(=O)[C@H](Cc2c[nH]c3ccccc23)NC(=O)[C@H](CC(=O)O)NC(=O)[C@H](CC(=O)O)NC(=O)[C@H](CCC(=O)O)NC1=O)[C@@H](C)O
notes: also called lactam analog of P12-G
IC50 [2]: 108 nM

B2: Head-to-head dimer of P9 and P10 (peptide)
peptide 1: AQEPEGYAYWEVITLYHEEDGDGG
peptide 2: AQAFPRFGGDDYWIQQYLRYTDGG
modifications: not fully specified; N-terminal amino group carries an NH-PEG4-CO linker and amino-oxyacetyl group, oxime-linked to the other chain; N-terminal amino group carries an NH-PEG4-CO linker and levulinyl group, oxime-linked to the other chain
notes: also called H-H dimer
fold increase in affinity over monomer P10 [3]: > 560 fold
kon [4]: 111000 M⁻¹ s⁻¹
Kd [5]: 2.24 nM
koff [6]: 0.000249 s⁻¹

B3: Tail-to-tail dimer of P9 and P10 (peptide)
peptide 1: Ac-AQEPEGYAYWEVITLYHEEDGDGGK-NH2
peptide 2: Ac-AQAFPRFGGDDYWIQQYLRYTDGGK-NH2
modifications: bridge I:25-II:25; not fully specified (bridges); printed as Ac-AQEPEGYAYWEVITLYHEEDGDGGK(Ac-AQAFPRFGGDDYWIQQYLRYTDGGK(—(O═)C(CH2CH2O)4CH2CH2NHC(═O)CH2CH2C(CH3)═NOCH2C(═O)NH(CH2CH2O)4CH2CH2C(═O)—)NH2)NH2; also: tail-to-tail dimer of two peptides joined through the Lys25 side chains
notes: also called T-T dimer; D31
kon [4]: 115000 M⁻¹ s⁻¹
fold increase in affinity over monomer P9 [7]: > 60 fold
koff [8]: 0.00128 s⁻¹
Kd [9]: 11 nM
Kd [5]: 11.1 nM

B4: P6-XB (4X) on neutravidin-HRP (other)
peptide: Ac-GDSRVCWEDSWGGEVCFRYDPGGGK([AEEA-AEEA-Biotin])-NH2
modifications: disulfide 6-16; also: four peptides bound to neutravidin-HRP
notes: Peptides held on the four biotin sites of neutravidin-HRP; also called tetrameric P6-XB; P6-XB Tetramer
Kd [10]: 10 nM

— patent US20050147555A1 (BRACCO SUISSE, published 2005)
